The text below walks through data of patent publication US20220332785A1.

Substitutions are numbered along the chain they refer to.

This assay has as its target p53^R175H LP … (SEQ ID NO: 111) in the context of HLA-DRB1*13:01 (human). Briefly: cell-based or functional assay.

B1: 4285-PBL-TCR1 (TCR)
TCR alpha: KTTQPNSMESNEEEPVHLPCNHSTISGTDYIHWYRQLPSQGPEYVIHGLTSNVNNRMASLAIAEDRKSSTLILHRATLRDAAVYYCILRDNNARLMFGDGTQLVVKPNIQNPEPAVYQLKDPRSQDSTLCLFTDFDSQINVPKTMESGTFITDKCVLDMKAMDSKSNGAIAWSNQTSFTCQDIFKETNATYPSSDVPCDATLTEKSFETDMNLNFQNLLVIVLRILLLKVAGFNLLMTLRLWSS
TCR beta: QVTQNPRYLITVTGKKLTVTCSQNMNHEYMSWYRQDPGLGLRQIYYSMNVEVTDKGDVPEGYKVSRKEKRNFPLILESPSPNQTSLYFCASGLVGFNQPQHFGDGTRLSILEDLRNVTPPKVSLFEPSKAEIANKQKATLVCLARGFFPDHVELSWWVNGKEVHSGVCTDPQAYKESNYSYCLSSRLRVSATFWHNPRNHFRCQVQFHGLSEEDKWPEGSPKPVTQNISAEAWGRADCGITSASYQQGVLSATILYEILLGKATLYAVLVSTLVVMAMVKRKNS
With B1, the functional avidity: interferon-gamma secretion (ELISA), lowest peptide concentration recognized stood at 10 ng/mL.

B2: 4285-PBL-TCR3 (TCR)
TCR alpha: KDQVFQPSTVASSEGAVVEIFCNHSVSNAYNFFWYLHFPGCAPRLLVKGSKPSQQGRYNMTYERFSSSLLILQVREADAAVYYCAVEDRRRTALIFGKGTTLSVSSNIQNPEPAVYQLKDPRSQDSTLCLFTDFDSQINVPKTMESGTFITDKCVLDMKAMDSKSNGAIAWSNQTSFTCQDIFKETNATYPSSDVPCDATLTEKSFETDMNLNFQNLLVIVLRILLLKVAGFNLLMTLRLWSS
TCR beta: EPEVTQTPSHQVTQMGQEVILRCVPISNHLYFYWYRQILGQKVEFLVSFYNNEISEKSEIFDDQFSVERPDGSNFTLKIRSTKLEDSAMYFCASSEYQSQSNEQFFGPGTRLTVLEDLRNVTPPKVSLFEPSKAEIANKQKATLVCLARGFFPDHVELSWWVNGKEVHSGVCTDPQAYKESNYSYCLSSRLRVSATFWHNPRNHFRCQVQFHGLSEEDKWPEGSPKPVTQNISAEAWGRADCGITSASYQQGVLSATILYEILLGKATLYAVLVSTLVVMAMVKRKNS
The molecule B2 yielded a functional avidity: interferon-gamma secretion (ELISA), lowest peptide concentration recognized of 10 ng/mL.

B3: 4285-PBL-TCR6 (TCR)
TCR alpha: QQVMQIPQYQHVQEGEDFTTYCNSSTTLSNIQWYKQRPGGHPVFLIQLVKSGEVKKQKRLTFQFGEAKKNSSLHITATQTTDVGTYFCAGPGGAGSYQLTFGKGTKLSVIPNIQNPEPAVYQLKDPRSQDSTLCLFTDFDSQINVPKTMESGTFITDKCVLDMKAMDSKSNGAIAWSNQTSFTCQDIFKETNATYPSSDVPCDATLTEKSFETDMNLNFQNLLVIVLRILLLKVAGFNLLMTLRLWSS
TCR beta: QVTQNPRYLITVTGKKLTVTCSQNMNHEYMSWYRQDPGLGLRQIYYSMNVEVTDKGDVPEGYKVSRKEKRNFPLILESPSPNQTSLYFCASSPFVVIGQINEQYFGPGTRLTVTEDLRNVTPPKVSLFEPSKAEIANKQKATLVCLARGFFPDHVELSWWVNGKEVHSGVCTDPQAYKESNYSYCLSSRLRVSATFWHNPRNHFRCQVQFHGLSEEDKWPEGSPKPVTQNISAEAWGRADCGITSASYQQGVLSATILYEILLGKATLYAVLVSTLVVMAMVKRKNS
As to B3, the functional avidity: interferon-gamma secretion (ELISA), lowest peptide concentration recognized is 10 ng/mL.

B4: 4285-PBL-TCR2 (TCR)
TCR alpha: KTTQPPSMDCAEGRAANLPCNHSTISGNEYVYWYRQIHSQGPQYIIHGLKNNETNEMASLIITEDRKSSTLILPHATLRDTAVYYCIVRARANAGGTSYGKLTFGQGTILTVHPNIQNPEPAVYQLKDPRSQDSTLCLFTDFDSQINVPKTMESGTFITDKCVLDMKAMDSKSNGAIAWSNQTSFTCQDIFKETNATYPSSDVPCDATLTEKSFETDMNLNFQNLLVIVLRILLLKVAGFNLLMTLRLWSS
TCR beta: GITQSPKYLFRKEGQNVTLSCEQNLNHDAMYWYRQDPGQGLRLIYYSQIVNDFQKGDIAEGYSVSREKKESFPLTVTSAQKNPTAFYLCASLQFNEQFFGPGTRLTVLEDLRNVTPPKVSLFEPSKAEIANKQKATLVCLARGFFPDHVELSWWVNGKEVHSGVCTDPQAYKESNYSYCLSSRLRVSATFWHNPRNHFRCQVQFHGLSEEDKWPEGSPKPVTQNISAEAWGRADCGITSASYQQGVLSATILYEILLGKATLYAVLVSTLVVMAMVKRKNS
In turn, B4 yielded a functional avidity: interferon-gamma secretion (ELISA), lowest peptide concentration recognized of 10 ng/mL.

B5: 4285-PBL-TCR5 (TCR)
TCR alpha: B4 TCR alpha with A90G, R91S, A92P, N93G
TCR beta: B4 TCR beta with L92S, Q93I, F94R, N95T, Q97A, P101Q, L108V
With B5, the functional avidity: interferon-gamma secretion (ELISA), lowest peptide concentration recognized is 10 ng/mL.

B6: 4285-PBL-TCR9 (TCR)
TCR alpha: B4 TCR alpha
TCR beta: B4 TCR beta with S91T, L92R, Q93T, F94G, Q97A, P101Q, L108V
The molecule B6 displayed a functional avidity: interferon-gamma secretion (ELISA), lowest peptide concentration recognized of 10 ng/mL.

B7: 4285-PBL-TCR7 (TCR)
TCR alpha: ELKVEQNPLFLSMQEGKNYTIYCNYSTTSDRLYWYRQDPGKSLESLFVLLSNGAVKQEGRLMASLDTKARLSTLHITAAVHDLSATYFCAVAHMDSNYQLIWGAGTKLIIKPNIQNPEPAVYQLKDPRSQDSTLCLFTDFDSQINVPKTMESGTFITDKCVLDMKAMDSKSNGAIAWSNQTSFTCQDIFKETNATYPSSDVPCDATLTEKSFETDMNLNFQNLLVIVLRILLLKVAGFNLLMTLRLWSS
TCR beta: GVTQTPKFRVLKTGQSMTLLCAQDMNHEYMYWYRQDPGMGLRLIHYSVGEGTTAKGEVPDGYNVSRLKKQNFLLGLESAAPSQTSVYFCASSYAGLAAPREQFFGPGTRLTVLEDLRNVTPPKVSLFEPSKAEIANKQKATLVCLARGFFPDHVELSWWVNGKEVHSGVCTDPQAYKESNYSYCLSSRLRVSATFWHNPRNHFRCQVQFHGLSEEDKWPEGSPKPVTQNISAEAWGRADCGITSASYQQGVLSATILYEILLGKATLYAVLVSTLVVMAMVKRKNS
B7: the functional avidity: interferon-gamma secretion (ELISA), lowest peptide concentration recognized turned out to be 10 ng/mL.
